Common to all, as to assay: ITC
(In general: In ITC the heat of successive injections is recorded.)

For test [1], the target named is T1, AnkG R1-24 T339A, N341A (Rattus norvegicus).
T1 chain: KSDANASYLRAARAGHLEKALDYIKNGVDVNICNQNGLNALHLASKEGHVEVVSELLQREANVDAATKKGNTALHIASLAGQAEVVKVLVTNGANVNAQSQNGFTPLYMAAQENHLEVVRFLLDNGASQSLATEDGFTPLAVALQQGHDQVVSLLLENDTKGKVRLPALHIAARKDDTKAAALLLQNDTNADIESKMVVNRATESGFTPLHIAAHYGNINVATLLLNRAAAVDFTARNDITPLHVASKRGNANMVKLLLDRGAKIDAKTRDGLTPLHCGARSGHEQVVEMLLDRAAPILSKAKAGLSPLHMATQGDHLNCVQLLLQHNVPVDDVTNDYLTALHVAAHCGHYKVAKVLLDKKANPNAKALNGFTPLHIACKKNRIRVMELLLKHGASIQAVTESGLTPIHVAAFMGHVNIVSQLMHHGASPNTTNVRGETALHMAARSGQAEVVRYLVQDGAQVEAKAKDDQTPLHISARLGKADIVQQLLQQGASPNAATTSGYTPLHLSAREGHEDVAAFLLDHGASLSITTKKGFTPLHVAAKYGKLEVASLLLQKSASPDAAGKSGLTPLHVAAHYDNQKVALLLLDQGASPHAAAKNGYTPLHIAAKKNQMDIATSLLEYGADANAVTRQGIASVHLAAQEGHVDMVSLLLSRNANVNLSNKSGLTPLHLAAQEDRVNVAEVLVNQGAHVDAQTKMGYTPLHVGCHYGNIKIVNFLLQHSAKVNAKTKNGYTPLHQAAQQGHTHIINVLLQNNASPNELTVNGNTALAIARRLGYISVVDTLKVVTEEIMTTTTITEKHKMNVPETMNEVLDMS

The target in test [2] is T2, AnkG R1-24 V282Q (Rattus norvegicus).
T2 chain: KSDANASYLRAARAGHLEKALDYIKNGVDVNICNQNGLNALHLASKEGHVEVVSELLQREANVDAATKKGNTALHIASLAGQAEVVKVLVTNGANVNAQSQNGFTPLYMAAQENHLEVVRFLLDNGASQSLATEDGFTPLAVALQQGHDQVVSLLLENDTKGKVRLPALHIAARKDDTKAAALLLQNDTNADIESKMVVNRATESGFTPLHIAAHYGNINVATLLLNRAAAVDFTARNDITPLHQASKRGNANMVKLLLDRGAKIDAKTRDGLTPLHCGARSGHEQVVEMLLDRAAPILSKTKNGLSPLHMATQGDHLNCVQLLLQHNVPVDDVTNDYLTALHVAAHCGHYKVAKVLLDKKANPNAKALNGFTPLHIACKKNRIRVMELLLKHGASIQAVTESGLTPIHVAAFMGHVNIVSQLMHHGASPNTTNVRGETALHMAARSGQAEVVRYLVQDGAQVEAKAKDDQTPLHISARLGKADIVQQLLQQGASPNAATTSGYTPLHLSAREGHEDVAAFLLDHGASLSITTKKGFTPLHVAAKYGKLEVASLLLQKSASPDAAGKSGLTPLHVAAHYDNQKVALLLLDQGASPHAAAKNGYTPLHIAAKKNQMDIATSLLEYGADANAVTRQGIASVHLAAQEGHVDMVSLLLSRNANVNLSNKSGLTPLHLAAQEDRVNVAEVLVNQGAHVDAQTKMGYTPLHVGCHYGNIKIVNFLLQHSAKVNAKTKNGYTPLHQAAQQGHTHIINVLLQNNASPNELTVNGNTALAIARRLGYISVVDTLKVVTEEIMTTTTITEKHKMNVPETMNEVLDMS

For test [3], the target named is T3, AnkG R1-24 I277Q, L310Q (Rattus norvegicus).
T3 chain: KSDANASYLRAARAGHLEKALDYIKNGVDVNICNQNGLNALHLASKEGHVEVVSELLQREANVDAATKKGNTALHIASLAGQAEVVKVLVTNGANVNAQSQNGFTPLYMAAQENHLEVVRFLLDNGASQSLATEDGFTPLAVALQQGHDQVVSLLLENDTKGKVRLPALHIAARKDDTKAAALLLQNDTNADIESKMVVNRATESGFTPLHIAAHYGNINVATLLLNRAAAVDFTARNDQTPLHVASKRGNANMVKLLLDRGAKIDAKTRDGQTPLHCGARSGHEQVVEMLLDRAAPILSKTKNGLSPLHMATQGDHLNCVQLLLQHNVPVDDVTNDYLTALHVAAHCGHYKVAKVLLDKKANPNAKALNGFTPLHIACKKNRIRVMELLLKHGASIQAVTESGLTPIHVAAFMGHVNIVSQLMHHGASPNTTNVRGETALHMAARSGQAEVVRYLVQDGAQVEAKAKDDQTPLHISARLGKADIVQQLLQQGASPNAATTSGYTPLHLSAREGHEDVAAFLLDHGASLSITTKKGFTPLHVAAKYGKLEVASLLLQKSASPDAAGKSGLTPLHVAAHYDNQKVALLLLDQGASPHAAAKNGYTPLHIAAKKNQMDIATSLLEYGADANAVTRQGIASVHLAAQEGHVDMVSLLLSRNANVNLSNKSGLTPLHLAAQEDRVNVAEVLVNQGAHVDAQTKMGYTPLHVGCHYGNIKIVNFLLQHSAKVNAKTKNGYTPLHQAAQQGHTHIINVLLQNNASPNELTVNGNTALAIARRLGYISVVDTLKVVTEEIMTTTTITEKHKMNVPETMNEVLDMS

B1: Nfasc ankyrin-binding domain (ABD, residues 1187-1214) (domain or fragment, UniProt P97685 1187-1214, looked up)
chain: SDDSLVDYGEGGEGQFNEDGSFIGQYTV
notes: also called Nfasc ABD; source: E. coli BL21 (DE3), purified (Ni-NTA, size-exclusion chromatography)
In general, Kd refers to the equilibrium constant for the complex coming apart. A higher Kd goes with a looser complex. Take B1: the Kd amounted to 2500 nM in test [1], 1300 nM in test [2] and 3000 nM in test [3].
